Reference: US11421026B2, “Antibodies that bind human cannabinoid 1 (CB1) receptor” (BIRD ROCK BIO, Inc., priority 2015, dated 2022)

Assays:
[1] = biological target: A139 iCAPS (human CB1, ICL3 replaced with BRIL); experiment: ELISA binding of IgG/Fab to CB1 iCAPS A139; settings: IgG and Fab ELISA, Table 8
Experimental: Purified IgG was tested for binding to purified CB1 receptor (CB1 Conformation Antigen Presenting System (iCAPS)) by ELISA. Non-biotinylated antigens (e.g. empty iCAPS) were coated directly on Maxisorp plates. The primary antibodies were purified IgGs with 1:3 serial dilutions, incubated on the plate for 1 hour. After 3 rounds of washing with PBST, secondary antibodies HRP goat anti-mouse IgG (Abmart) or HRP goat anti-human IgG (Sigma), depending on the species of the IgGs were added and incubated for another hour. The plates were washed three times with PBST, then developed with TMB (Biopanda). HCl was added to the plates to stop the reaction. Absorbance at 450 nm was read on Emax precision microplate reader (Molecular Devices).
IgG and Fab molecules tested were 36E12B6C2 IgG, 36E12B6C2 Fab, PA13R3-P1C4 IgG, and PA13R3-P1C4 Fab, compared to negative control BRIL binder P1F7 IgG and P1F7 Fab. For IgG antibodies, the secondary antibody used to detect binding was anti-mouse IgG-HRP; for Fabs, the secondary antibody used to detect binding was anti-human IgG-HRP.

5HT2B expressing cells = biological target: T1, 5HT2B expressing cells (Homo sapiens, UniProt P41595); experiment: Flow cytometry selectivity versus 5HT2B; type: binding
T1 construct: expressed in transfected cells
T1 sequence (P41595 whole entry): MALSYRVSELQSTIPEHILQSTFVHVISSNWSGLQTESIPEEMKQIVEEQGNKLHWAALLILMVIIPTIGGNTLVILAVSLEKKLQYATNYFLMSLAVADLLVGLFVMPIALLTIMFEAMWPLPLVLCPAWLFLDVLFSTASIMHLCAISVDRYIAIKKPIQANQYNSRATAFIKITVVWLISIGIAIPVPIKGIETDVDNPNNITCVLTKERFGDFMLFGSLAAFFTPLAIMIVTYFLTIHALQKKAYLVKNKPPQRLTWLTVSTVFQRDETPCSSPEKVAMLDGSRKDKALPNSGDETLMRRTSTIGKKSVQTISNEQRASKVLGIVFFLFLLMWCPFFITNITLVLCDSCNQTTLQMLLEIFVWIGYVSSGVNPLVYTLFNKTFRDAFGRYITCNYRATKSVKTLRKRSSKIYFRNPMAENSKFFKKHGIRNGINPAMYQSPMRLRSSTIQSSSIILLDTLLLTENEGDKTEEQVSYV
Experimental: (§1) To further assess TRex CHO parental cells, TRex CHO A56 overexpressed CB1, Native human CB1 TRex CHO A156, 5HT2B, Mouse CB1 and human CB2 were used to examine the specificity of IgG binding. 100 μl of 1×10^6 cells/ml of cells were incubated with primary antibody IgGs in 3-fold serial dilutions starting from 1 μM to 0.5 nM for 30 minutes on ice. After being washed with 200 μl of FACS buffer twice, cells were incubated with secondary antibody for 30 minutes on ice. Cells were washed with 200 μl of FACS buffer twice and transferred to BD Falcon 5 ml tube and analyzed by FACS.
Santa Cruz anti-CB1 rabbit polyclonal antibody and secondary antibody FITC conjugated anti-rabbit were used to detect the expression of mouse CB1. R&D mouse monoclonal anti-CB2 and human IgG P2C2 were used to confirm the expression of CB2 and 5HT2B respectively. Both anti-mouse and anti-human secondary antibodies were PE-conjugated.
For selected binders, full binding curves were generated on CB1 receptor by testing a range of concentrations. Three-fold serial dilutions from 1 μM to […] were prepared. Selectivity was determined by measuring binding to cells expressing 5HT2B or CB2, relative to binding to A156 (native human CB1 receptor expressing) or A56 (overexpressed—CB1 receptor with the T210A modification and ICL3 replacement with fusion partner) by flow cytometry. As shown in FIG. 2C and FIG. 2D, the expression of CB2 and 5HT2B was confirmed using mouse monoclonal anti-CB2 and P2C2 human IgG to confirm CB2 and 5HT2B expression, respectively. PE-conjugated anti-mouse (for detection of anti-CB2) and PE conjugated anti-human antibodies were used to detect CB2 and 5HT2B, respectively.

[2] = biological target: T2, TRex CHO A156 Native human CB1 cells (Homo sapiens, UniProt P21554); experiment: Competition assay by FACS; type: binding; settings: excess competitor; staining IgG at EC80 and EC50
T2 construct: pcDNA4/TO native full length human CB1 receptor construct was transfected into tetracycline inducible system Trex-CHO cells; expressed in transfected cells
T2 sequence (P21554 whole entry): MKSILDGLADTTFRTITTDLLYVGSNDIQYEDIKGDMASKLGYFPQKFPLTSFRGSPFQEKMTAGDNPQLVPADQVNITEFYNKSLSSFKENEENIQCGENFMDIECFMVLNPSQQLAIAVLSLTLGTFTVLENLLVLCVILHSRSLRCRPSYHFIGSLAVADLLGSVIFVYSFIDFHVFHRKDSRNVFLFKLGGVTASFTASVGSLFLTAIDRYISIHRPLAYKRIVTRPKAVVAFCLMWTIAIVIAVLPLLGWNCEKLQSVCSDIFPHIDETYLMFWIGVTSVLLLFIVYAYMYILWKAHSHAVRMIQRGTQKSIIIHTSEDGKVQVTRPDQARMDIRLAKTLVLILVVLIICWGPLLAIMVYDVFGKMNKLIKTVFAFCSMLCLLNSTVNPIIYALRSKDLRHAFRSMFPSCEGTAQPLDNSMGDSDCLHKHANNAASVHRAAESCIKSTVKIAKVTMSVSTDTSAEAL
Experimental: TRex CHO A156 Native human CB1 cells were used to test whether 36E12B6C2 and P1C4 bind to similar epitopes. Concentrations at EC80 and EC50 of P1C4 and 36E12B6C2 were used for staining. Excess of PA13R3-P1C4 IgG, Fab and 36E12B6C2 were used for competition. 100 μl of 1×10^6 cells/ml of A156 cells were incubated with competitor IgGs for 30 minutes on ice and then staining IgGs were added into the mixture with 30 minutes incubation on ice. After being washed with 200 μl of FACS buffer twice, cells were incubated with secondary antibody for 30 minutes on ice. PE conjugated anti-human and anti-mouse was diluted in 1:200 folds. Cells were washed with 200 μl of FACS buffer twice and transferred to BD Falcon 5 ml tube and analyzed by FACS.

[3] = system: TRex CHO parental cells (no CB1); experiment: Flow cytometry (FACS) binding to parental cells
Experimental: TRex CHO parental cells, TRex CHO A56 over-expressed CB1 (CB1 T210A/fusion partner), and Native human CB1 TRex CHO A156 were harvested from flasks. 100 μl of 1×10^6 cells/ml of cells were incubated with primary antibody IgGs. Secondary Antibody PE conjugated anti-human and anti-mouse was diluted in 1:200 folds. Anti-Human Fab FITC was diluted in 1:32 folds. Cells were washed with 200 μl of FACS buffer twice and transferred to BD 5 ml Falcon tube and analyzed by flow cytometry. Binding of purified IgG was initially tested at concentrations of 30 nM and 300 nM.
as §1
The binding affinity, cross-reactivity and specificity of humanized P1C4 antibodies were determined by flow cytometry with TRex CHO parental cells, TRex CHO A56 overexpressed CB1 cells (T210A/fusion partner), native human CB1 TRex CHO A156 cells, Trex parental (no CB1) cells, mouse CB1 cells, and human CB2 stable cells. […] After being washed with 200 μl of FACS buffer twice, cells were incubated with PE conjugated anti-human secondary antibody (Southern Biotech) for 30 minutes on ice. Cells were washed with 200 μl of FACS buffer twice and transferred to BD Falcon 5 ml tube and analyzed by flow cytometry (BD FACScalibur).
The binding affinity of PA13R3-P1C4 humanized variants was determined by flow cytometry using TRex CHO cells stably transfected with the CB1. TRex CHO parental cells, and TRex-CHO cells stably transfected with tetracycline inducible human CB1, human CB2 or mouse CB1 expression constructs were harvested. To determine binding of test antibodies, one hundred microliters of 1×10^6 cells/mL of cells were incubated with test antibodies with a range of concentrations between 1 μM and 1.3 nM for 30 minutes on ice. Cells were then centrifuged at 4° C. at 1600 rpm for 3 minutes; supernatant was aspirated and cells were washed with 200 μL FACS buffer. The washing procedure was repeated twice. […] Cells were washed with 200 μL FACS buffer twice and analyzed by flow cytometry (Guava). […] The mean dissociation constant (KD) of PA13R3-P1C4 humanized variants was determined by averaging at least 4 different experiments using at least 2 different batches of protein (FIG. 20A-D and Table 16).

Molecule	EC50 [1] [nM]	cross-activity with 5ht2b (5HT2B expressing cells)	competition for CB1 binding [2]	binding to parental TRex CHO (in words) [3]	Kd TRexCHO parental ([3]; Table 10)
PA13R3-P1C4: phage-derived chimeric anti-CB1 IgG; HC variable SEQ ID NO: 2, LC variable SEQ ID NO: 6 (antibody, V domains shown, PA13R3-P1C4 Heavy chain variable region; PA13R3-P1C4 Light chain variable region) VH: EVQLQQSGAELVRPGVSVKISCKASGYEFSYYWMNWVKQRPGQGLEWIGQIYPGDGETKYNGKFKGKATLTADKSSNTAYMQLSSLTSEDSAVYFCARSHGNYLPYWGQGTLVTVSA VL: DIVLTQSPAIMSASLGERVTMTCTASSSVSSSYLHWYQQKPGSSPKLWIYSTSNLASGVPARFSGSGSGTSYSLTISSMEAEDAATYYCHQYHRSPPTFGAGTKLELK	0.17	do not have cross-activity	competed with 36E12B6C2	not parental TRex CHO	No binding
PA13R3-P1C4 Fab: Fab fragment of chimeric PA13R3-P1C4 (antibody, V domains shown) VH: EVQLQQSGAELVRPGVSVKISCKASGYEFSYYWMNWVKQRPGQGLEWIGQIYPGDGETKYNGKFKGKATLTADKSSNTAYMQLSSLTSEDSAVYFCARSHGNYLPYWGQGTLVTVSA VL: DIVLTQSPAIMSASLGERVTMTCTASSSVSSSYLHWYQQKPGSSPKLWIYSTSNLASGVPARFSGSGSGTSYSLTISSMEAEDAATYYCHQYHRSPPTFGAGTKLELK	0.27	do not have cross-activity	competed with 36E12B6C2	not parental TRex CHO	
36E12B6C2: hybridoma-derived anti-CB1 mAb; HC variable SEQ ID NO: 18, LC variable SEQ ID NO: 22 (antibody, listed as Mus sp., V domains shown) VH: QVQLQQSGAELVRPGSSVKISCKASGYEFSYYWMNWVKQRPGQGLQWIGQIYPGDGDTNYNGKFKGKATLTADKSSSTAYMHLTSLTSEDSAVYFCARSGGNPFAFWGQGTLVTVSA VL: DIQMTQTSSSLSASLGDRVTFSCRASQDISNYLNWYQQKPDGTVKLLIYYTSRLHSGVTSRFRGSGSGTDYSLTISNLEQEDVATYFCQQGHTLPWSFGGGTKLEIK	0.19	do not have cross-activity	could also compete with PA13R3-P1C4	not parental TRex CHO	
